Target: ROP18 in total lysate antigen of T. gondii RH (RH Ag) (Toxoplasma gondii RH strain) (UniProt Q2PAY2)
Test: direct ELAA (plate-based aptamer binding)
Conditions: 50 ug/mL RH Ag coated; aptamer 50-500 nM; Direct ELAA: antigen coated in carbonate pH 9.6 overnight 4 C; 1% BSA block; biotin-aptamer in PBS, 0.5% glucose, 0.1% albumin, 1 M MgCl2 (so in the source), 1 h …

UniProt Q2PAY2, sequence (Q2PAY2 whole entry): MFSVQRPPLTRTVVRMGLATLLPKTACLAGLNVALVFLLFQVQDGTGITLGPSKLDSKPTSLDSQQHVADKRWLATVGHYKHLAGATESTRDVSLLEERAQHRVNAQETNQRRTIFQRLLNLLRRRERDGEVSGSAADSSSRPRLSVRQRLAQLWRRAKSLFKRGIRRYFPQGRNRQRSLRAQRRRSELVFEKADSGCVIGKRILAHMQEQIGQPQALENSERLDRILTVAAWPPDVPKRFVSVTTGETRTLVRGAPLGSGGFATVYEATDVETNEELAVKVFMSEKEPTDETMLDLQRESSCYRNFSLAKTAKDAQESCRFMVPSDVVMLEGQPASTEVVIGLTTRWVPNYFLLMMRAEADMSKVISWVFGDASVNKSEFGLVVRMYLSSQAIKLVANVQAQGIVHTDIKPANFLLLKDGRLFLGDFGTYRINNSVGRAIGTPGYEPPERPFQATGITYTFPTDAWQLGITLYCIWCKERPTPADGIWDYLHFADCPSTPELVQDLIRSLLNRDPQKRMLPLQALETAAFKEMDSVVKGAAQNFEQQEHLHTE

Sequence	Kd
TCCTGGCAGCGCTTTTGCTTGTTTGCTCTCGTACCTGTCC [AP001]	62.7 nM
CGCACCGATCCGGTGTTAATCTCGACGTCCCTTAAGTTTG [AP002]	97.7 nM
